Columns and labels:
[1] = target: T1, human alpha CGRP (SEQ ID NO: 80) (human, not fully specified); experiment: SPR, Biacore T200, 37 C; biotinylated mutein captured, human alpha CGRP analyte
T1 construct: also called human αCGRP; hαCGRP
T1 peptide: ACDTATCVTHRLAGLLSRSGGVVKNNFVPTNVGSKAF
Experimental: (§1) The Biotin CAPture Kit (GE Healthcare) was used to immobilized biotinylated lipocalin muteins to a chip surface. Muteins were biotinylated using standard NHS chemistry. Fifty-fold diluted Biotin CAPture Reagent (streptavidin conjugated with ss-DNA oligo) was captured on a Sensor Chip CAP with the pre-immobilized complementary ss-DNA oligo. Thereafter, biotinylated muteins at 200 nM were applied for 60 s at a flow rate of 10 μL/min.
The dilutions were injected with association times of 600 s and dissociation times of 1800 s. Regeneration of the chip surface was achieved by injecting 6 M Guanidinium-HCl+0.25 M NaOH (120 s) with a flow rate of 10 μL/min, followed by injecting 30% acetonitrile+0.25 M NaOH (120 s) with a flow rate of 10 μL/min. Injection of regeneration solutions was followed by an extra wash step with HBS-EP+ running buffer and a stabilization period of 60 s.
(§2) The data were double-referenced by subtraction of the corresponding signals measured for the control channel (loaded with Biotin CAPture reagent only) and by subtraction of buffer injections from the binding responses. Association rate constant ka and dissociation rate constant kd for the binding reaction were determined using Biacore T200 Evaluation Software version 1.0 for data processing and kinetic fitting. The data were globally fit with 1:1 binding model.

[2] = target: T1, human alpha CGRP (SEQ ID NO: 80); experiment: cell-based or functional assay
[3] = target: T2, rat beta CGRP (SEQ ID NO: 83) (rat, not fully specified); experiment: cell-based or functional assay
T2 peptide: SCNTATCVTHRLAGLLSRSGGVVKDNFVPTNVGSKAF

[4] = target: T1, human alpha CGRP (SEQ ID NO: 80); experiment: cell-based or functional assay
[5] = target: T3, rat alpha CGRP (SEQ ID NO: 82) (rat); experiment: cell-based or functional assay
T3 peptide: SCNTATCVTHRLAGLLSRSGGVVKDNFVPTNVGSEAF

[6] = target: T4, human beta CGRP (SEQ ID NO: 81) (human, not fully specified); experiment: cell-based or functional assay
T4 peptide: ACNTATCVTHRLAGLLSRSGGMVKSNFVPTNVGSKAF

[7] = target: T1, human alpha CGRP (SEQ ID NO: 80); experiment: SPR Biacore 37 °C, mutein captured as ligand, sample PL1827 (ha CGRP) injected, 1:1 fit; repeat run 130903_NAN-DS-058 (not the run of Table 2) [contd]
Experimental: as §1, with “to immobilize” for “to immobilized”, “chemistry. Undiluted” for “chemistry. Fifty-fold diluted”, “at 1 μg/mL” for “at 200 nM”, “for 300” for “for 60”, “of 5” for “of 10”
(§3) CGRP species were applied in three concentrations of 30 nM, 3 nM and 0.3 nM at a flow rate of 30 μL/min or in a single concentration of 25 nM per cycle as shown in FIG. 2. The dilutions were injected with association times of 180 s and dissociation times of 5400 sec to obtain ka and kd information. Regeneration of the chip surface was achieved by injecting 6 M Guanidinium-HCl+0.25 M NaOH (120 s) with a flow rate of 10 μL/min. Injection of regeneration solutions was followed by an extra wash step with HBS-EP+(1×; BR-1006-69; GE Healthcare) running buffer and a stabilization period of 120 s.
as §2, with “V2.0” for “version 1.0”

[8] = target: T2, rat beta CGRP (SEQ ID NO: 83); experiment: SPR, 37 C, mutein captured, CGRP analyte
Experimental: as §1, with “to immobilize” for “to immobilized”, “chemistry. Undiluted” for “chemistry. Fifty-fold diluted”, “at 1 μg/mL” for “at 200 nM”, “for 300” for “for 60”, “of 5” for “of 10”
as §3
as §2, with “V2.0” for “version 1.0”

[9] = target: T1, human alpha CGRP (SEQ ID NO: 80); experiment: SPR, 37 C, mutein captured, CGRP analyte
Experimental: as §1, with “to immobilize” for “to immobilized”, “chemistry. Undiluted” for “chemistry. Fifty-fold diluted”, “at 1 μg/mL” for “at 200 nM”, “for 300” for “for 60”, “of 5” for “of 10”
as §3
as §2, with “V2.0” for “version 1.0”

[10] = target: T3, rat alpha CGRP (SEQ ID NO: 82); experiment: SPR, 37 C, mutein captured, CGRP analyte
Experimental: as §1, with “to immobilize” for “to immobilized”, “chemistry. Undiluted” for “chemistry. Fifty-fold diluted”, “at 1 μg/mL” for “at 200 nM”, “for 300” for “for 60”, “of 5” for “of 10”
as §3
as §2, with “V2.0” for “version 1.0”

[11] = target: T4, human beta CGRP (SEQ ID NO: 81); experiment: SPR, 37 C, mutein captured, CGRP analyte
Experimental: as §1, with “to immobilize” for “to immobilized”, “chemistry. Undiluted” for “chemistry. Fifty-fold diluted”, “at 1 μg/mL” for “at 200 nM”, “for 300” for “for 60”, “of 5” for “of 10”
as §3
as §2, with “V2.0” for “version 1.0”

[12] = target: T1, human alpha CGRP (SEQ ID NO: 80); experiment: SPR Biacore 37 °C, mutein captured as ligand, ha CGRP (1-37) injected, 1:1 fit; repeat run 130208_NAN-DS-047 (not the run of Table 2) [contd]
Experimental: as §1, with “to immobilize” for “to immobilized”, “chemistry. Undiluted” for “chemistry. Fifty-fold diluted”, “at 1 μg/mL” for “at 200 nM”, “for 300” for “for 60”, “of 5” for “of 10”
as §3
as §2, with “V2.0” for “version 1.0”

[13] = target: T4, human beta CGRP (SEQ ID NO: 81); experiment: SPR Biacore 37 °C, mutein captured as ligand, hb CGRP (1-37) injected, 1:1 fit; repeat run 130208_NAN-DS-047 (not the run of Table 2) [contd]
Experimental: as §1, with “to immobilize” for “to immobilized”, “chemistry. Undiluted” for “chemistry. Fifty-fold diluted”, “at 1 μg/mL” for “at 200 nM”, “for 300” for “for 60”, “of 5” for “of 10”
as §3
as §2, with “V2.0” for “version 1.0”

[14] = target: T2, rat beta CGRP (SEQ ID NO: 83); experiment: SPR Biacore 37 °C, mutein captured as ligand, rb CGRP (1-37) injected, 1:1 fit; repeat run 130208_NAN-DS-047 (not the run of Table 2) [contd]
Experimental: as §1, with “to immobilize” for “to immobilized”, “chemistry. Undiluted” for “chemistry. Fifty-fold diluted”, “at 1 μg/mL” for “at 200 nM”, “for 300” for “for 60”, “of 5” for “of 10”
as §3
as §2, with “V2.0” for “version 1.0”

[15] = target: T3, rat alpha CGRP (SEQ ID NO: 82); experiment: SPR Biacore 37 °C, mutein captured as ligand, ra CGRP (1-37) injected, 1:1 fit; repeat run 130208_NAN-DS-047 (not the run of Table 2) [contd]
Experimental: as §1, with “to immobilize” for “to immobilized”, “chemistry. Undiluted” for “chemistry. Fifty-fold diluted”, “at 1 μg/mL” for “at 200 nM”, “for 300” for “for 60”, “of 5” for “of 10”
as §3
as §2, with “V2.0” for “version 1.0”

B1: tag-free lipocalin mutein SEQ ID NO: 87 (designed binder)
chain: GQDSTSDLIPAPPLSKVPLQQNFQDNQFQGKWYVVGWAGNTLLREDKDPIKMQAMIYELKEDKSYNVTWVYFADKKINYHIETFVPGSQPGEFTLGTIKSYPGETPILVRVVSTNYNQHAMVFFKGVNQNREIFEIVLYGRTKELTNELKENFIRFSKSLGLPENHIVFPVPIDQEIDG
notes: biotinylated by NHS chemistry for capture in SPR; also called tag-free mutein 87
Kd [1]: 0.081 nM | cAMP assay IC50 [2]: 0.66 nM

B2: lipocalin mutein SEQ ID NO: 14 (designed binder)
chain: QDSTSDLIPAPPLSKVPLQQNFQDNQFHGKWYVVGRAGNDALREDKDPEKMEATIYELKEDKSYNVTDVGFVQKKCMYVIHTFVPGSQPGEFTLGNIKSYPGVTSALVRVVSTNYNQHAMVFFKLVKQNRELFEITLYGRTKELTSELKENFIRFSKSLGLPENHIVFPVPIDQCIDGSAWSHPQFEK
notes: biotinylated by NHS chemistry for capture in SPR
IC50, CGRP-induced cAMP production, L6 cells [3]: 0.09 nM | IC50, CGRP-induced cAMP production, SK-N-MC cells [4]: 0.15 nM | IC50, CGRP-induced cAMP production, L6 cells [5]: 0.12 nM | IC50, CGRP-induced cAMP production, SK-N-MC cells [6]: 1.5 nM | koff [7]: 0.000183 s⁻¹ | kon [7]: 3.44e+06 M⁻¹ s⁻¹ | Kd [8]: 0.107 nM | koff [8]: 0.000181 s⁻¹ | kon [8]: 1.69e+06 M⁻¹ s⁻¹ | Kd [9]: 0.055 nM | koff [9]: 0.000141 s⁻¹ | kon [9]: 2.56e+06 M⁻¹ s⁻¹ | Kd [10]: 0.29 nM | koff [10]: 0.000339 s⁻¹ | kon [10]: 1.19e+06 M⁻¹ s⁻¹ | Kd [11]: 0.031 nM | koff [11]: 0.000141 s⁻¹ | kon [11]: 4.56e+06 M⁻¹ s⁻¹

B3: lipocalin mutein SEQ ID NO: 15 (designed binder)
chain: QDSTSDLIPAPPLSKVPLQQNFQDNQFHGKWYVVGRAANDRLREDKDPEKMEATIYELKEDKSYNVTDVGFSRKKCIYVIHTFVPGSQPGEFTLGNIKSYPGTTSGLVRVVSTNYNQHAMVFFKVVGQNRESFEITLYGRTKELTSELKENFIRFSKSLGLPENHIVFPVPIDQCIDGSAWSHPQFEK
notes: as for B2
koff [12]: 0.000256 s⁻¹ | kon [12]: 5.23e+06 M⁻¹ s⁻¹ | koff [13]: 0.000309 s⁻¹ | kon [13]: 1.22e+07 M⁻¹ s⁻¹ | koff [14]: 0.000178 s⁻¹ | kon [14]: 2.31e+06 M⁻¹ s⁻¹ | Kd [8]: 0.039 nM | koff [8]: 0.000193 s⁻¹ | kon [8]: 4.98e+06 M⁻¹ s⁻¹ | Kd [9]: 0.038 nM | koff [9]: 0.000238 s⁻¹ | kon [9]: 6.32e+06 M⁻¹ s⁻¹ | Kd [10]: 0.17 nM | koff [10]: 0.000274 s⁻¹ | kon [10]: 1.59e+06 M⁻¹ s⁻¹ | Kd [11]: 0.018 nM | koff [11]: 0.000273 s⁻¹ | kon [11]: 1.53e+07 M⁻¹ s⁻¹ | koff [15]: 0.000295 s⁻¹ | kon [15]: 1.38e+06 M⁻¹ s⁻¹

B4: tag-free lipocalin mutein SEQ ID NO: 88 (designed binder)
chain: GQDSTSDLIPAPPLSKVPLQQNFQDNQFHGKWYVVGRAGNDVLREDKDPEKMEATIYELKEDKSYNVTDVGFVQKRCMYVTHTFVPGSQPGEFTLGNIESYPGVTSALVRVVSTDYNQHAMVFVKLVKQNRELFEITLYGRTKELTSELKENFIRFSKSLGLPENHIVFPVPIDQCIDG
notes: biotinylated by NHS chemistry for capture in SPR; also called tag-free mutein 88
Kd [1]: 0.008 nM | cAMP assay IC50 [2]: 0.17 nM

B5: tag-free lipocalin mutein SEQ ID NO: 89 (designed binder)
chain: GQDSTSDLIPAPPLSKVPLQQNFQDNQFHGKWYVVGRAGNDVLREDKDPEKMEATIYELKEDKSYQVTDVGFVQKRCMYVTHTFVPGSQPGEFTLGNIESYPGVTSALVRVVSTDYNQHAMVFVKLVKQNRELFEITLYGRTKELTSELKENFIRFSKSLGLPENHIVFPVPIDQCIDD
notes: biotinylated by NHS chemistry for capture in SPR; also called tag-free mutein 89
Kd [1]: 0.006 nM | cAMP assay IC50 [2]: 0.17 nM

B6: tag-free lipocalin mutein SEQ ID NO: 91 (designed binder)
chain: GQDSTSDLIHAPPLSKVPLQQNFQDNQFHGKWYVVGRAGNDVLREDKDPEKMEATIYELKEDKSYNVTDVGFVQKRCMYVTHTFVPGSQPGEFTLGNIESYPGVTSALVRVVSTDYNQHAMVFVKLVKQNRELFEITLYGRTKELTSELKENFIRFSKSLGLPENHIVFPVPIDQCIDG
notes: biotinylated by NHS chemistry for capture in SPR; also called tag-free mutein 91
Kd [1]: 0.01 nM | cAMP assay IC50 [2]: 0.16 nM

B7: tag-free lipocalin mutein SEQ ID NO: 92 (designed binder)
chain: GQDSTSDLKPAPPLSKVPLQQNFQDNQFHGKWYVVGRAGNDVLREDKDPEKMEATIYELKEDKSYQVTDVGFVQKRCMYVTHTFVPGSQPGEFTLGNIESYPGVTSALVRVVSTDYNQHAMVFVKLVKQNRELFEITLYGRTKELTSELKENFIRFSKSLGLPENHIVFPVPIDQCIDD
notes: biotinylated by NHS chemistry for capture in SPR; also called tag-free mutein 92
Kd [1]: 0.01 nM | cAMP assay IC50 [2]: 0.18 nM

B8: tag-free lipocalin mutein SEQ ID NO: 93 (designed binder)
chain: GQDSTSDLIHAPPLSKVPLQQNFQDNQFHGKWYVVGRAGNDVLREDKDPEKMEATIYELKEDKSYQVTDVGFVQKRCMYVTHTFVPGSQPGEFTLGNIESYPGVTSALVRVVSTDYNQHAMVFVKLVKQNRELFEITLYGRTKELTSELKENFIRFSKSLGLPENHIVFPVPIDQCIDD
notes: biotinylated by NHS chemistry for capture in SPR; also called tag-free mutein 93
Kd [1]: 0.011 nM | cAMP assay IC50 [2]: 0.13 nM

B9: tag-free lipocalin mutein SEQ ID NO: 90 (designed binder)
chain: GQDSTSDLKPAPPLSKVPLQQNFQDNQFHGKWYVVGRAGNDVLREDKDPEKMEATIYELKEDKSYNVTDVGFVQKRCMYVTHTFVPGSQPGEFTLGNIESYPGVTSALVRVVSTDYNQHAMVFVKLVKQNRELFEITLYGRTKELTSELKENFIRFSKSLGLPENHIVFPVPIDQCIDG
notes: biotinylated by NHS chemistry for capture in SPR; also called tag-free mutein 90
Kd [1]: 0.012 nM | cAMP assay IC50 [2]: 0.16 nM

— patent publication US20190338002A1 (Pieris, published 2019)
